Assay results taken from PMC11514443 (Structure (London, England : 1993), 2019).

System: A/Udorn/72 (H3N2) influenza virus
Type: cell-based, A/Udorn/72 (H3N2) influenza virus; human HEK293T cells

B1: WT MORC3 (protein, UniProt Q14149 1-939, looked up)
MORC family CW-type zinc …: MAAQPPRGIRLSALCPKFLHTNSTSHTWPFSAVAELIDNAYDPDVNAKQIWIDKTVINDHICLTFTDNGNGMTSDKLHKMLSFGFSDKVTMNGHVPVGLYGNGFKSGSMRLGKDAIVFTKNGESMSVGLLSQTYLEVIKAEHVVVPIVAFNKHRQMINLAESKASLAAILEHSLFSTEQKLLAELDAIIGKKGTRIIIWNLRSYKNATEFDFEKDKYDIRIPEDLDEITGKKGYKKQERMDQIAPESDYSLRAYCSILYLKPRMQIILRGQKVKTQLVSKSLAYIERDVYRPKFLSKTVRITFGFNCRNKDHYGIMMYHRNRLIKAYEKVGCQLRANNMGVGVVGIIECNFLKPTHNKQDFDYTNEYRLTITALGEKLNDYWNEMKVKKNTEYPLNLPVEDIQKRPDQTWVQCDACLKWRKLPDGMDQLPEKWYCSNNPDPQFRNCEVPEEPEDEDLVHPTYEKTYKKTNKEKFRIRQPEMIPRINAELLFRPTALSTPSFSSPKESVPRRHLSEGTNSYATRLLNNHQVPPQSEPESNSLKRRLSTRSSILNAKNRRLSSQFENSVYKGDDDDEDVIILEENSTPKPAVDHDIDMKSEQSHVEQGGVQVEFVGDSEPCGQTGSTSTSSSRCDQGNTAATQTEVPSLVVKKEETVEDEIDVRNDAVILPSCVEAEAKIHETQETTDKSADDAGCQLQELRNQLLLVTEEKENYKRQCHMFTDQIKVLQQRILEMNDKYVKKETCHQSTETDAVFLLESINGKSESPDHMVSQYQQALEEIERLKKQCSALQHVKAECSQCSNNESKSEMDEMAVQLDDVFRQLDKCSIERDQYKSEVELLEMEKSQIRSQCEELKTEVEQLKSTNQQTATDVSTSSNIEESVNHMDGESLKLRSLRVNVGQLLAMIVPDLDLQQVNYDVDVVDEILGQVVEQMSEISST
viral infectivity: slight increase in viral infectivity
